According to PMC2762480:

What was measured:
[1] = molecular target: s-dEGFRΔV (Drosophila EGF receptor extracellular region, domains I to IV) (Drosophila melanogaster); assay: AUC
[2] = molecular target: s-dEGFRΔV/Spitz complex (Drosophila melanogaster) (UniProt Q01083); assay: AUC

## s-dEGFRΔV (Drosophila EGF receptor extracellular region, domains I to IV) (domain or fragment)
[1]
  Kd: 40 µM

## s-dEGFRΔV/Spitz complex (from UniProt Q01083 29-143)
[2]
  stoichiometry N: 2
